Results reported in US20260116951A1 (DUCENTIS BIOTHERAPEUTICS, published 2026).

Tests used:
[1] = target: T1, Recombinant Cyno CD200R, His-tagged (Creative Biomart CD200R1-3483C) (cynomolgus monkey); experiment: SPR, cyno CD200R1 flowed over immobilized CD200-Fc, 25 C, 1:1 fit, mean of 2 experiments with standard deviation
T1 construct: Bought; also called cynomolgus CD200R1; cynomolgus CD200R
Protocol: (§1) For human CD200 constructs: anti-human Fc (GE Healthcare) was covalently immobilized on a BIAcore CM5 sensor chip (Cytiva, BR100530) by amine coupling using a Cytiva kit (BR100839) following the manufacturer's instructions, targeting immobilization of 8,000-11,000 RU. CD200-Fc proteins were diluted to 0.5 μg/mL to 4 μg/mL in running Buffer (1×HBS-EP+pH7.4 (Cytiva BR100669), HEPES Buffered Saline pH 7.4 containing 3 mM EDTA and 0.05% v/v Surfactant P20) and flowed for 25 to 100 seconds at 10 μL/min over the immobilized Anti-Human IgG Fc, with a stabilization time of 60 seconds. Between 35 and 250 RUs of CD200-Fc were captured, with higher RUs used for cynomolgus CD200R binding experiments. […] Analysis temperature was 25° C. This was followed by regeneration of the surface with 30-90 second pulse of 3M MgCl₂ flowed at […] flow rate followed by stabilization of the surface with 60 second flow of running buffer.
(§2) Curves obtained were fitted to 1:1 Langmuir binding model by setting Rmax and RI as local parameters. Rate equations using standard parameters (e.g. ligand concentration, time) were used for iterative curve fitting. […] Means of 2 experiments carried out on the same day are shown with standard deviation. Residue numbering for CD200 proteins refers to the pre-protein, containing a signal peptide which is cleaved during insertion into the endoplasmic reticulum.

[2] = target: T2, Human CD200R, full length, on transduced U937 cells (U937-CD200R) (human, UniProt Q8TD46 25-348); experiment: Flow cytometry on U937-CD200R cells, 4 hours incubation at 37 C, fluorescent anti-human secondary antibody
T2 construct: whole, on cells; also called U937-CD200R cells; CD200R-expressing U937 cells
T2 sequence (looked up): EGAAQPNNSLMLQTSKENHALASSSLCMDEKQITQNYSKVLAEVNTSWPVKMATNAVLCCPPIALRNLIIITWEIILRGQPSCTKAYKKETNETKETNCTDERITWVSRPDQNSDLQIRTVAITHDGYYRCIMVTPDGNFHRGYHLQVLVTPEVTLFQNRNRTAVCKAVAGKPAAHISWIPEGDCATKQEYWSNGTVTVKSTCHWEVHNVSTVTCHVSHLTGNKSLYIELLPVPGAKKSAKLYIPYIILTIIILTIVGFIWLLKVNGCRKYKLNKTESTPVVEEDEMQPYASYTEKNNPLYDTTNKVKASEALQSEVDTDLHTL
Protocol: Construct treatment (50 μL) was performed starting from 10 μg/mL with 3-fold dilutions up to 10 concentrations with FACS buffer and incubated for 1-hour, 4-hours and 24-hours at 37° C. At the end of each time point, cells were collected and washed. 10 μg/mL of anti-human secondary antibody was added and incubated for 30 minutes at 4° C. Cells were washed post incubation and stained to check viability (1 μL dye per million cells per mL 1×PBS) for 20 minutes at 4° C. Cells were washed and fixed with Fixation buffer (100 μL per test) at 4° C. for 20 minutes. Post incubation, cells were washed and the pellet was re-suspended in FACS buffer (100 μL per test) for data acquisition on flow cytometer.

[3] = target: T3, Recombinant Human CD200R, His-tagged (Creative Biomart CD200R1-320H) (human, UniProt Q8TD46 27-266); experiment: SPR (BIAcore T200), CD200-Fc captured on anti-human Fc, CD200R flowed, 25 C, 1:1 fit
T3 construct: Bought; also called human CD200 receptor; not shown: His tag
T3 sequence (looked up): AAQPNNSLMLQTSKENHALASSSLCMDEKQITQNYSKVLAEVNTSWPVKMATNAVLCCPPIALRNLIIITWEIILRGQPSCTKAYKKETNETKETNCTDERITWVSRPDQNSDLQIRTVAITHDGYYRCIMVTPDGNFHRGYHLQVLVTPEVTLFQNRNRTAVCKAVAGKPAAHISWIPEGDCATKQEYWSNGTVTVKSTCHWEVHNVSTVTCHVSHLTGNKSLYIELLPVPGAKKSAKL
Protocol: (§3) The experiments were performed on a GE Healthcare BIAcore T200. Human, cynomolgus and mouse CD200R proteins were purchased from Creative Biomart (CD200R1-320H, CD200R1-3483C, CD200R1-3280M). All measurements were performed in duplicate.
For human CD200 constructs: anti-human Fc (GE Healthcare) was covalently immobilized on a BIAcore CM5 sensor chip (Cytiva, BR100530) by amine coupling using a Cytiva kit (BR100839) following the manufacturer's instructions, targeting immobilization of 8,000-11,000 RU. CD200-Fc proteins were diluted to 0.5 μg/mL to 4 μg/mL in running Buffer (1×HBS-EP+pH7.4 (Cytiva BR100669), HEPES Buffered Saline pH 7.4 containing 3 mM EDTA and 0.05% v/v Surfactant P20) and flowed for 25 to 100 seconds at 10 μL/min over the immobilized Anti-Human IgG Fc, with a stabilization time of 60 seconds. […]
For mouse CD200 constructs, muCD200R-Fc (Creative Biomart CD200R1-458M) diluted to 1 μg/mL in running buffer was flowed over the immobilized Anti-Human IgG Fc, with CD200 monomers serially diluted and flowed over captured CD200R. […] Data analysis: experimental sensorgrams were analyzed in BIAevaluation software (GE Healthcare). […] Closeness of fit was determined by algorithms provided by the manufacturer in the BIAevaluation software, and data accepted if the Chi² value was less than 10% of Rₘₐₓ, and the U value was less than or equal to 15.

[4] = target: T1, Recombinant Cyno CD200R, His-tagged …; experiment: SPR, cyno CD200R1 flowed over immobilized CD200-Fc, 25 C, 1:1 fit
Protocol: as §1, §2

[5] = target: T1, Recombinant Cyno CD200R, His-tagged …; experiment: SPR (BIAcore T200), CD200-Fc captured on anti-human Fc, cyno CD200R flowed, 25 C, 1:1 fit, mean of two runs
Protocol: as §3, §1
(§4) For mouse CD200 constructs, muCD200R-Fc (Creative Biomart CD200R1-458M) diluted to 1 μg/mL in running buffer was flowed over the immobilized Anti-Human IgG Fc, with CD200 monomers serially diluted and flowed over captured CD200R. Other details were as above. Data analysis: experimental sensorgrams were analyzed in BIAevaluation software (GE Healthcare). The curves obtained were fitted to 1:1 Langmuir binding model by setting Rmax and RI as local parameters. Rate equations using standard parameters (e.g. ligand concentration, time) were used for iterative curve fitting. Closeness of fit was determined by algorithms provided by the manufacturer in the BIAevaluation software, and data accepted if the Chi² value was less than 10% of Rₘₐₓ, and the U value was less than or equal to 15.

[6] = target: T3, Recombinant Human CD200R, His-tagged …; experiment: SPR, CD200R flowed over immobilized CD200-Fc, 25 C, 1:1 fit; reference is wild-type CD200-Fc DS-155
Protocol: as §1, §2

[7] = target: T1, Recombinant Cyno CD200R, His-tagged …; experiment: SPR (BIAcore), DS-118 captured (0.5 ug/mL), CynoCD200R1 flowed at 1000 nM to 62.5 nM, 25 C, 1:1 Binding model, run 1
Protocol: as §1, §4

Kd [1]: 206 nM | T1/2 [4]: 0.303 min | Kd [5]: 206 nM | koff [5]: 0.038 s⁻¹ | kon [5]: 186000 M⁻¹ s⁻¹ | Kd [7]: 207 nM | koff [7]: 0.0164 s⁻¹ | kon [7]: 79200 M⁻¹ s⁻¹
B1: DS-118 (mutated human CD200-Fc fusion protein, K130Y, I131Y, IgG4 S228P Fc) (Fc fusion)
chain: QVQVVTQDEREQLYTPASLKCSLQNAQEALIVTWQKKKAVSPENMVTFSENHGVVIQPAYKDKINITQLGLQNSTITFWNITLEDEGCYMCLFNTFGFGYYSGTACLTVYVQPIVSLHYKFSEDHLNITCSATARPAPMVFWKVPRSGIENSTVTLSHPNGTTSVTSILHIKDPKNQVGKEVICQVLHLGTVTDFKQTVNKGPPCPPCPAPEFLGGPSVFLFPPKPKDTLMISRTPEVTCVVVDVSQEDPEVQFNWYVDGVEVHNAKTKPREEQFNSTYRVVSVLTVLHQDWLNGKEYKCKVSNKGLPSSIEKTISKAKGQPREPQVYTLPPSQEEMTKNQVSLTCLVKGFYPSDIAVEWESNGQPENNYKTTPPVLDSDGSFFLYSRLTVDKSRWQEGNVFSCSVMHEALHNHYTQKSLSLSLGK
notes: also called mutated CD200-Fc; mutant CD200-Fc
EC50 (read off the curve) [2]: ~0.9 µg/mL | t½ [3]: 37.9 min | fold increase in affinity from wild type (DS-155) [6]: > 130 fold
